Source: IntAct's records for PubMed 36931259

B1: 14-3-3 protein sigma (Homo sapiens), P31947 (parent)
chain: MERASLIQKAKLAEQAERYEDMAAFMKGAVEKGEELSCEERNLLSVAYKNVVGGQRAAWRVLSSIEQKSNEEGSEEKGPEVREYREKVETELQGVCDTVLGLLDSHLIKEAGDAESRVFYLKMKGDYYRYLAEVATGDDKKRIIDSARSAYQEAMDISKKEMPPTNPIRLGLALNFSVFHYEIANSPEEAISLAKTTFDEAMADLHTLSEDSYKDSTLIMQLLRDNLTLWTADNAGEEGGEAPQEPQS
partner: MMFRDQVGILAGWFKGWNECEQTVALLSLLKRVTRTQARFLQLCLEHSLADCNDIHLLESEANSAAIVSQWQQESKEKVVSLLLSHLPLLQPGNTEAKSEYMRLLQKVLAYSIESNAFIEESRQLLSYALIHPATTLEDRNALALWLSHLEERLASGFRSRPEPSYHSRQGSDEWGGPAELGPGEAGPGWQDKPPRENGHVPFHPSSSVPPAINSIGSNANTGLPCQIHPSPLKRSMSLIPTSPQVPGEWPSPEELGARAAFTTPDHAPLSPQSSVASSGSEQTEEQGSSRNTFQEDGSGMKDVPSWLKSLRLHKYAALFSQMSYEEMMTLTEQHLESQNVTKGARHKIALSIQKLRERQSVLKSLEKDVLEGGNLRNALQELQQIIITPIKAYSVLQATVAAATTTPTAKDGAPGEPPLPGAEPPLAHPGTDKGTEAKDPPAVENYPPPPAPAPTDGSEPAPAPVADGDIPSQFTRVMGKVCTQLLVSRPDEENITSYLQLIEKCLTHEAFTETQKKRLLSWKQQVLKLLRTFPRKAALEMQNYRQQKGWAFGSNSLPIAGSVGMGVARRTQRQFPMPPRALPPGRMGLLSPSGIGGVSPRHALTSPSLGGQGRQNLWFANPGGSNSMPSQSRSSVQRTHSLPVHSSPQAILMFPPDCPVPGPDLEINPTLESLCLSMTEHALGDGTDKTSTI
B2: 14-3-3 protein sigma (Homo sapiens), P31947 (parent)
chain: B1 chain
partner: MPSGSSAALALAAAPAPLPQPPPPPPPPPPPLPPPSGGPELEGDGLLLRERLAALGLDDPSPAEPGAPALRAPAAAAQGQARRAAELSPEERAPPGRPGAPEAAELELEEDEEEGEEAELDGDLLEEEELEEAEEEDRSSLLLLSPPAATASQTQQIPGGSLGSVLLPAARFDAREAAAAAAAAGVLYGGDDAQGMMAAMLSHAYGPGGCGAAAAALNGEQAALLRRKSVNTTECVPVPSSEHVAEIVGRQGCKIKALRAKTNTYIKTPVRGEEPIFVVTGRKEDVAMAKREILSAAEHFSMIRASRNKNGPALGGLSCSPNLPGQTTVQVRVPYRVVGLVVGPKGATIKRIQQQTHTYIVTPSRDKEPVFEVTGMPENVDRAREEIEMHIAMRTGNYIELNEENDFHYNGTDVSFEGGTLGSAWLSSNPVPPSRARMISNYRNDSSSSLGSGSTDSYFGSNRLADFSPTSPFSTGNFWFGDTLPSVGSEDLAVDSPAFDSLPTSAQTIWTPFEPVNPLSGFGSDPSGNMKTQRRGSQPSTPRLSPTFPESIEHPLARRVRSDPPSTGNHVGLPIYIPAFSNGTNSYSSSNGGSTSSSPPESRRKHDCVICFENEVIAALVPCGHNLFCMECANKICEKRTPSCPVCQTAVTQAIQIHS
B3: 14-3-3 protein sigma (Homo sapiens), P31947 (parent)
chain: B1 chain
partner: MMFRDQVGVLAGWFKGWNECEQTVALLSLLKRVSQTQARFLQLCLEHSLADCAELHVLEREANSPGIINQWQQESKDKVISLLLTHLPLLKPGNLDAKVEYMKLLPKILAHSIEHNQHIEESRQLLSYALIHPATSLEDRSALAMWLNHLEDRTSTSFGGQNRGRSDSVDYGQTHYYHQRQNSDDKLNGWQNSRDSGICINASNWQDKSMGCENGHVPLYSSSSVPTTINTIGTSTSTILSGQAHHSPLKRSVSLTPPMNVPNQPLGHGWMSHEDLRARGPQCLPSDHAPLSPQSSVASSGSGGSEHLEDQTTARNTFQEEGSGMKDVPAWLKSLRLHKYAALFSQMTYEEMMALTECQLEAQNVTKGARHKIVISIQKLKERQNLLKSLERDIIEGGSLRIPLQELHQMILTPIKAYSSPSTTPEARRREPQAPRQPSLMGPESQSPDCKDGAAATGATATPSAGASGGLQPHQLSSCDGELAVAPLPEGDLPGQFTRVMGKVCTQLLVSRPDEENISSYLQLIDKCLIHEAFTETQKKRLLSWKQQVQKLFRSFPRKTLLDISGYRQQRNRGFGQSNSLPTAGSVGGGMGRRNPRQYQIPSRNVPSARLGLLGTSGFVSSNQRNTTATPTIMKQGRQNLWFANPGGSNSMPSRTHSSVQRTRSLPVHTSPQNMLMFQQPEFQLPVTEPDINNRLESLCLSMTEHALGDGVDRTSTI
B4: 14-3-3 protein sigma (Homo sapiens), P31947 (parent)
chain: B1 chain
partner: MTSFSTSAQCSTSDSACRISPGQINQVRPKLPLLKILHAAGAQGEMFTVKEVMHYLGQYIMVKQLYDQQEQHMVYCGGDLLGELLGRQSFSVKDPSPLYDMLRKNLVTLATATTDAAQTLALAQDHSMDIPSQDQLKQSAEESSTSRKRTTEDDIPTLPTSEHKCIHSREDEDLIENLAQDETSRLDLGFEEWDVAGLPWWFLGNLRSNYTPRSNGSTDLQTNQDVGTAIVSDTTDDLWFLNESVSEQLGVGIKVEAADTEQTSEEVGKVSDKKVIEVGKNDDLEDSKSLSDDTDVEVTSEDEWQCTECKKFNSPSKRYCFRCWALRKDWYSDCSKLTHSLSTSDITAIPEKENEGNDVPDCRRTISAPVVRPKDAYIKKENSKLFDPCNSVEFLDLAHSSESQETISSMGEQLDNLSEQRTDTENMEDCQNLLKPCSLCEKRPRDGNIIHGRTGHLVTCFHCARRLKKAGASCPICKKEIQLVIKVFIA
B5: 14-3-3 protein sigma (Homo sapiens), P31947 (parent)
chain: B1 chain
partner: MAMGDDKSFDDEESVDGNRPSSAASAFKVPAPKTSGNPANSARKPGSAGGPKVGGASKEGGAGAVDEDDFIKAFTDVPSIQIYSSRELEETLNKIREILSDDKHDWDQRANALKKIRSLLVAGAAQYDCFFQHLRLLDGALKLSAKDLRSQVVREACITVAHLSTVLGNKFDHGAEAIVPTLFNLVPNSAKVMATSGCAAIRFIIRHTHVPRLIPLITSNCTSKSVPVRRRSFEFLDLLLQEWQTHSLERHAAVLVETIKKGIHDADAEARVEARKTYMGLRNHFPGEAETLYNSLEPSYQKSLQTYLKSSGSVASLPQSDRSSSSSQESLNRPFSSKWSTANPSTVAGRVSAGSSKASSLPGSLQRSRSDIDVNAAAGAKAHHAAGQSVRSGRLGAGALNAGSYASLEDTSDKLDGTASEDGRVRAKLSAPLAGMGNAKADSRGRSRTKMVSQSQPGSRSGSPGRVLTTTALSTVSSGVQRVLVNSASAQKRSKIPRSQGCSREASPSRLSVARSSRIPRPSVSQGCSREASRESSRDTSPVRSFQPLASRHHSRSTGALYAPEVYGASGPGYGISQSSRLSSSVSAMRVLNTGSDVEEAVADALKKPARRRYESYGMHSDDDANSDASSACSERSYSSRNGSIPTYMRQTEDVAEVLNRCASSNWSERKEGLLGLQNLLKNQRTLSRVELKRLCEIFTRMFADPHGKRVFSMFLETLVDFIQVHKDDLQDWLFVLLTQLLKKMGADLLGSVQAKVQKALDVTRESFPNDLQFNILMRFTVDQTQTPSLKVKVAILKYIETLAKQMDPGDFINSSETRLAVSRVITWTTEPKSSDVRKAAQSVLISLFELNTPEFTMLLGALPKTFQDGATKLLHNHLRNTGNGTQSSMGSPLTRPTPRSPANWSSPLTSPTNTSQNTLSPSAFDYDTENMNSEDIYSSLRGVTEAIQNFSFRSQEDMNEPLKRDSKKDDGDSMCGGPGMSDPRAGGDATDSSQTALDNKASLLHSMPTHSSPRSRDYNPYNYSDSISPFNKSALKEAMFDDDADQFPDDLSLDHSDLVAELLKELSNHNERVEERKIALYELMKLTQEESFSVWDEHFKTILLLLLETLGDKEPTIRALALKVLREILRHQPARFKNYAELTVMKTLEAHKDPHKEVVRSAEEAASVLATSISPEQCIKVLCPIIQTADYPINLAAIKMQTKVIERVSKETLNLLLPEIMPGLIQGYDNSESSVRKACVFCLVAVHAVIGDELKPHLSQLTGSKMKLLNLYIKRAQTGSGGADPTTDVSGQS
B6: Glutamate receptor-interacting protein 1 (Homo sapiens), Q9Y3R0-3 (parent)
chain: MIAVSFKCRCQILRRLTKDESPYTKSASQTKPPDGALAVRRQSIPEEFKGSTVVELMKKEGTTLGLTVSGGIDKDGKPRVSNLRQGGIAARSDQLDVGDYIKAVNGINLAKFRHDEIISLLKNVGERVVLEVEYELPPVSVQGSSVIFRTVEVTLHKEGNTFGFVIRGGAHDDRNKSRPVVITCVRPGGPADREGTIKPGDRLLSVDGIRLLGTTHAEAMSILKQCGQEAALLIEYDVSVMDSVATASGPLLVEVAKTPGASLGVALTTSMCCNKQVIVIDKIKSASIADRCGALHVGDHILSIDGTSMEYCTLAEATQFLANTTDQVKLEILPHHQTRLALKGPDHAALVSSSFSPTSMSAYSLSSLNMGTLPRSLYSTSPRGTMMRRRLKKKDFKSSLSLASSTVGLAGQVVHTETTEVVLTADPVTGFGIQLQGSVFATETLSSPPLISYIEADSPAERCGVLQIGDRVMAINGIPTEDSTFEEASQLLRDSSITSKVTLEIEFDVAESVIPSSGTFHVKLPKKHNVELGITISSPSSRKPGDPLVISDIKKGSVAHRTGTLELGDKLLAIDNIRLDNCSMEDAVQILQQCEDLVKLKIRKDEDNSDEQESSGAIIYTVELKRYGGPLGITISGTEEPFDPIIISSLTKGGLAERTGAIHIGDRILAINSSSLKGKPLSEAIHLLQMAGETVTLKIKKQTDAQSASSPKKFPISSHLSDLGDVEEDSSPAQKPGKLSDMYPSTVPSVDSAVDSWDGSAIDTSYGTQGTSFQASGYNFNTYDWRSPKQRGSLSPVTKPRSQTYPDVGLSYEDWDRSTASGFAGAADSAETEQEENFWSQALEDLETCGQSGILRELEEKADRRVSLRNMTLLATIMSGSTMSLNHEAPTPRSQLGRQASFQERSSSRPHYSQTTRSNTLPSDVGRKSVTLRKMKQEIKEIMSPTPVELHKVTLYKDSDMEDFGFSVADGLLEKGVYVKNIRPAGPGDLGGLKPYDRLLQVNHVRTRDFDCCLVVPLIAESGNKLDLVISRNPLASQKSIDQQSLPGDWSEQNSAFFQQPSHGGNLETREPTNTL
partner: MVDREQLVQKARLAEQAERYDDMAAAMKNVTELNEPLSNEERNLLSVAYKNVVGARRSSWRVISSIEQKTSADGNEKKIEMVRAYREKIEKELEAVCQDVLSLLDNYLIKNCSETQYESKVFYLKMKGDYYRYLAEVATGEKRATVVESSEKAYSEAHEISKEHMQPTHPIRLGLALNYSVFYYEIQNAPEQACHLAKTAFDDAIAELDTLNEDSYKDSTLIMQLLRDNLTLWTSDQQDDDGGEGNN

Variants of: B1
Details: with smag2_human SAMD4B

| effect of a mutation on the interaction | Variant |
| --- | --- |
| decreasing interaction strength | K49E;R56E;V178D |

Variants of: B2
Details: with mex3c_human MEX3C

| effect of a mutation on the interaction | Variant |
| --- | --- |
| decreasing interaction strength | K49E;R56E;V178D |

Variants of: B3
Details: with smag1_human SAMD4A

| effect of a mutation on the interaction | Variant |
| --- | --- |
| decreasing interaction strength | K49E;R56E;V178D |

Variants of: B4
Details: with mdm4_human MDM4, O15151

| effect of a mutation on the interaction | Variant |
| --- | --- |
| decreasing interaction strength | K49E;R56E;V178D |

Variants of: B5
Details: with clap2_human CLASP2, O75122

| effect of a mutation on the interaction | Variant |
| --- | --- |
| decreasing interaction strength | K49E;R56E;V178D |

Variants of: B6
Details: with 1433g_human YWHAG

| effect of a mutation on the interaction | Variant |
| --- | --- |
| disrupting interaction strength | T17A;S43A;S901A;T920A |
